This note sets out measurements from the RNAGym collection of RNA variant scans (doi:10.7554/elife.80360).

B1: Hairpin Ribozyme (parent)
chain: GUCCUCUUUCACGUGCGCGUGAAAGAGAGAAGUGAACCAGAGAAACACACGUUGUGGUAUAUUACCUGGUA

The variants in the data set derive from B1. Description: self-cleavage, relative activity (ratio to wild type); higher = more cleavage; co-transcriptional.
Regarding GUACACUUUCACGUGCGCGUGAAAGAGAGAAGUGAACCAGAGAAACACACGUUGUGGUAUAUUACCUGGUA [C3A U5A], the self-cleavage turned out to be 0.214.
As for GUACUCUUUCACGUGCUCGUGAAAGAGAGAAGUGAACCAGAGAAACACACGUUGUGGUAUAUUACCUGGUA [C3A G17U], the figure is 0.571; as for GUACUCUUUCACGUGCGCGUGAAAGAGAGAAGUGAACCAGAGAAACACACUUUGUGGUAUAUUACCUGGUA [C3A G51U], 0.792; as for GUACUCUUUCACGUGCGCGUGAAAGAGAGAAGUGAACCAGAGAAACACACGUGGUGGUAUAUUACCUGGUA [C3A U53G], 0.613.
With GUACUCUUUCACGUGCGCGUGAAAGAGAGAAGUGAACCAGAGAAACACAGGUUGUGGUAUAUUACCUGGUA [C3A C50G], the self-cleavage stood at 0.199.
For GUACUCUUUCACGUGCGCGUGAAAGAGAGAAGUCAACCAGAGAAACACACGUUGUGGUAUAUUACCUGGUA [C3A G34C], the self-cleavage came to 0.984.
The result for GUACUCCUUCACGUGCGCGUGAAAGAGAGAAGUGAACCAGAGAAACACACGUUGUGGUAUAUUACCUGGUA [C3A U7C] reads 0.621; that for GUACUCUUUCACGUGCGCGUGAAAGAGAGAAGUGAACCUGAGAAACACACGUUGUGGUAUAUUACCUGGUA [C3A A39U], 0.252; that for GUACUCUUUCACGUGCGCGUGAAAGAGAGAAGUGAACCCGAGAAACACACGUUGUGGUAUAUUACCUGGUA [C3A A39C], 0.328.
Consider GUACUCUUUCACGUGCGCGUGAAAGAGAGAAGUGAACCGGAGAAACACACGUUGUGGUAUAUUACCUGGUA [C3A A39G], for which the self-cleavage is 0.192.
For GUACUCUUUCACGUGCGCGUGAAAGAGAGAAGUGAACCAGAGAAACACACGUUGUAGUAUAUUACCUGGUA [C3A G56A], the self-cleavage stood at 0.127.
In the case of GUACUCUUUCACGUGCGCGUGAAAGAGAGAAGUGAACCAGAGAAACACACGUUGUUGUAUAUUACCUGGUA [C3A G56U], the self-cleavage is 0.162.
Consider GUACUCUUUCACGUGCGCGUGAAAGAGAGAAGUGAACCAGAGAAACACACGUUGUGGUAUUUUACCUGGUA [C3A A61U], for which the self-cleavage is 0.199.
For GUACUCUUUCACGUGCGCGUGAAAGAGAGAAGUGAACCAGAGAAACACACGAUGUGGUAUAUUACCUGGUA [C3A U52A], the self-cleavage worked out at 0.7.
Regarding GUACUCUUUCACGUGCGCGUGAAAGGGAGAAGUGAACCAGAGAAACACACGUUGUGGUAUAUUACCUGGUA [C3A A26G], the self-cleavage was determined as 0.736.
On to GUACUCUUUCACGUGCGCGUGAAAGCGAGAAGUGAACCAGAGAAACACACGUUGUGGUAUAUUACCUGGUA [C3A A26C], for which the self-cleavage was found to be 0.402.
For GUACUCUUUCACGUGCGCGUGAAAGAGAGAAGUGAACCAGAGAAACACACGUUGUGGUAUAUUAUCUGGUA [C3A C65U], the self-cleavage is 0.222.
Turning to GUACUCUUUCACGUGCGCGUGAAAGAGAGAAGUGAACCAAAGAAACACACGUUGUGGUAUAUUACCUGGUA [C3A G40A], the self-cleavage was determined as 0.23.
With GUACUCUUUUACGUGCGCGUGAAAGAGAGAAGUGAACCAGAGAAACACACGUUGUGGUAUAUUACCUGGUA [C3A C10U], the self-cleavage came to 0.595.
In the case of GUACUCUUUCACGUGCGCGUGAAAGAGAGCAGUGAACCAGAGAAACACACGUUGUGGUAUAUUACCUGGUA [C3A A30C], the self-cleavage is 0.14.
Turning to GUACUCUUUCACGUGCGCGUGAAAGAGAGGAGUGAACCAGAGAAACACACGUUGUGGUAUAUUACCUGGUA [C3A A30G], the self-cleavage amounted to 0.146.
With GUACUCUCUCACGUGCGCGUGAAAGAGAGAAGUGAACCAGAGAAACACACGUUGUGGUAUAUUACCUGGUA [C3A U8C], the self-cleavage came out at 0.427.
As to GUACUCUUUCACGUGCGCGUGAAAGAGAGAAGUGAACCAGAGAAACAUACGUUGUGGUAUAUUACCUGGUA [C3A C48U], the self-cleavage came to 0.112.
For the variant GUACUCUUUCACGUGCGCGUGAAAGAGAGAAGUGAACCAGAGAAACAGACGUUGUGGUAUAUUACCUGGUA [C3A C48G], the self-cleavage came out at 0.158.
Take GUACUCUUCCACGUGCGCGUGAAAGAGAGAAGUGAACCAGAGAAACACACGUUGUGGUAUAUUACCUGGUA [C3A U9C]: the self-cleavage was 0.532.
The result for GUACUCUUGCACGUGCGCGUGAAAGAGAGAAGUGAACCAGAGAAACACACGUUGUGGUAUAUUACCUGGUA [C3A U9G] reads 0.576.
Consider GUACUCUUACACGUGCGCGUGAAAGAGAGAAGUGAACCAGAGAAACACACGUUGUGGUAUAUUACCUGGUA [C3A U9A], for which the self-cleavage is 0.401.
For the variant GUACUCUUUCACGUGCGCGUGAAAGAGAGAAGUGAACCAGAGAACCACACGUUGUGGUAUAUUACCUGGUA [C3A A45C], the self-cleavage was determined as 0.157.
GUACUCUUUCACGUGCGCGUGAAAGAGAGAAGUGAACCAGAGAAGCACACGUUGUGGUAUAUUACCUGGUA [C3A A45G]: the self-cleavage came to 0.197.
With GUACUCUUUCACGUGCGCGUGAAAGAGAGAAGUGAACCAGAGAAUCACACGUUGUGGUAUAUUACCUGGUA [C3A A45U], the self-cleavage was determined as 0.164.
As to GUACUCUUUCACGUGCGCGUGAAAGAGAGAAGUGACCCAGAGAAACACACGUUGUGGUAUAUUACCUGGUA [C3A A36C], the self-cleavage came out at 0.497.
As for GUACUCUUUCACGUGCGCGUGAAAGAGAGAAGUGAACCAGAGAAACACACGUUGUGGUAUAUUACCUGCUA [C3A G69C], the figure is 0.342; as for GUACUCUUUCAUGUGCGCGUGAAAGAGAGAAGUGAACCAGAGAAACACACGUUGUGGUAUAUUACCUGGUA [C3A C12U], 0.59; as for GUACUCUUUCACGUGCGCGUGAAAGAGGGAAGUGAACCAGAGAAACACACGUUGUGGUAUAUUACCUGGUA [C3A A28G], 0.453.
Turning to GUACUCUUUCACGUGCGCGUGAAAGAGCGAAGUGAACCAGAGAAACACACGUUGUGGUAUAUUACCUGGUA [C3A A28C], the self-cleavage was 0.648.
For GUACUCUUUCACGUGCGCGUGAAAGAGAGAAGUGAAACAGAGAAACACACGUUGUGGUAUAUUACCUGGUA [C3A C37A], the self-cleavage came out at 0.217.
Turning to GUACUCUUUCACGUGCGCGUGAAAGAGAGAAGUGAACCAGAGAGACACACGUUGUGGUAUAUUACCUGGUA [C3A A44G], the self-cleavage was determined as 0.126.
As to GUACUCUUUCACGUGCGCGUGAAAGAGAGAAGUGAACCAGAGAUACACACGUUGUGGUAUAUUACCUGGUA [C3A A44U], the self-cleavage was 0.148.
